{"source": "paper PMC2859980", "proteins": {"B1": {"name": "tyrosinase: z-vad-fmk, R402Q tyrosinase cells (protein)", "parent chain": "MLLAVLYCLLWSFQTSAGHFPRACVSSKNLMEKECCPPWSGDRSPCGQLSGRGSCQNILLSNAPLGPQFPFTGVDDRESWPSVFYNRTCQCSGNFMGFNCGNCKFGFWGPNCTERRLLVRRNIFDLSAPEKDKFFAYLTLAKHTISSDYVIPIGTYGQMKNGSTPMFNDINIYDLFVWMHYYVSMDALLGGSEIWRDIDFAHEAPAFLPWHRLFLLRWEQEIQKLTGDENFTIPYWDWRDAEKCDICTDEYMGGQHPTNPNLLSPASFFSSWQIVCSRLEEYNSHQSLCNGTPEGPLRRNPGNHDKSRTPRLPSSADVEFCLSLTQYESGSMDKAANFSFRNTLEGFASPLTGIADASQSSMHNALHIYMNGTMSQVQGSANDPIFLLHHAFVDSIFEQWLQRHRPLQEVYPEANAPIGHNRESYMVPFIPLYRNGDFFISSKDLGYDYSYLQDSDPDSFQDYIKSYLEQASRIWSWLLGAAMVGAVLTALLAGLVSLLCRHKRKQLPEEKQPLLMEKEDYHSLYQSHL"}, "B2": {"name": "tyrosinase: z-vad-fmk, N371D R402Q tyrosinase cells (protein)", "parent chain": "B1 parent chain with N371D"}, "B3": {"name": "tyrosinase: z-vad-fmk (protein)", "parent chain": "B1 parent chain with Q402R"}}, "key": {"[1]": {"assay": "T cell IFN-γ ELISA after acid stripping and re-expression", "details": "glycan gained; control: same cells without z-vad-fmk"}, "[2]": {"assay": "cytosolic fraction SDS-PAGE, anti-flag immunoblot", "details": "glycan gained; control: untreated (cycloheximide only)"}}, "note": "Where a chain is given by its changes, count along the chain named. In names and notes the source's numbering stands."}
{"protein": "B1", "values": [{"measurement": "other: MHC class I epitope presentation", "setting": "[1]", "value": "decreases"}]}
{"protein": "B2", "values": [{"measurement": "other: MHC class I epitope presentation", "setting": "[1]", "value": "no change"}]}
{"protein": "B3", "values": [{"measurement": "degradation_or_half_life", "setting": "[2]", "value": "no change"}]}
